We go through ten molecules from PMC5345052, “Auto-phosphorylation Represses Protein Kinase R Activity” (Scientific Reports, 2017).

Experiment in all cases: split Venus fluorescence complementation in HEK293 cells
Assay [1] concerns the target PKR RNA-binding domain with C-terminal split Venus V1 tag. To be noted: 20 ng/well of each plasmid construct; n = 5; parent: est. 2.9; read off a plot.
The target in assay [2] is truncated PKR kinase domain with N-terminal split Venus V2 tag (UniProt P19525). The following applies: 20 ng/well of each plasmid construct, read off a plot.
Assay [3] addresses truncated phosphor-transfer mutant PKR kinase domain (KD-K296R) with N-terminal split Venus V2 tag (UniProt P19525). To be noted: 20 ng/well of each plasmid construct; partner kinase domain carries K296R; n = 5; parent: est. 3.0; read off a plot.
The target of assay [4] is T1, truncated phosphor-transfer mutant PKR kinase domain (KD-K296R) with N-terminal split Venus V2 tag, P19525.
T1 chain: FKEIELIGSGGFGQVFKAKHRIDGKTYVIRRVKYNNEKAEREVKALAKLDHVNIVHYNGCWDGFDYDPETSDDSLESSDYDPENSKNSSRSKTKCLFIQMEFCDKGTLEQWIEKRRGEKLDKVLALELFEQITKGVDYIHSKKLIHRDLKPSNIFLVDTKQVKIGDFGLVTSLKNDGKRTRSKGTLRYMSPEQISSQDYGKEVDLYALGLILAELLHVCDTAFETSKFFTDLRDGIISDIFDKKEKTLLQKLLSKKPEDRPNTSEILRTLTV
To be noted: chain shown with the change; 20 ng/well of full-length PKR and 30 ng/well of the truncated KD; partner kinase domain carries K296R; n = 7; parent: est. 4.2; read off a plot.

Where [5] appears, read: 5 μM 2-aminopurine (2AP), n = 6, parent: est. 3.8.

For “truncated PKR kinase domain with N-terminal split Venus V2 tag (from UniProt P19525) K296R”, in assay [1], the response turned out to be 3.

For “PKR RNA-binding domain with C-terminal split Venus V1 tag S33A; T42A”, the response was 4.3 in assay [2] (setting [5]); 2.9 in assay [2] (n = 7, parent: est. 2.9); 3.5 in assay [3].

Regarding “PKR RNA-binding domain with C-terminal split Venus V1 tag S33E; T42E”, the response in assay [2] (setting [5]) came out at 3.1; in assay [2] (n = 7, parent: est. 2.9), 2.5; in assay [3], 2.6.

B1: full-length PKR with N-terminal split Venus V1 tag, P19525 H37R; S33A; T42A (protein)
chain: MAGDLSAGFFMEELNTYRQKQGVVLKYQELPNAGPPRDRRFAFQVIIDGREFPEGEGRSKKEAKNAAAKLAVEILNKEKKAVSPLLLTTTNSSEGLSMGNYIGLINRIAQKKRLTVNYEQCASGVHGPEGFHYKCKMGQKEYSIGTGSTKQEAKQLAAKLAYLQILSEETSVKSDYLSSGSFATTCESQSNSLVTSTLASESSSEGDFSADTSEINSNSDSLNSSSLLMNGLRNNQRKAKRSLAPRFDLPDMKETKYTVDKRFGMDFKEIELIGSGGFGQVFKAKHRIDGKTYVIKRVKYNNEKAEREVKALAKLDHVNIVHYNGCWDGFDYDPETSDDSLESSDYDPENSKNSSRSKTKCLFIQMEFCDKGTLEQWIEKRRGEKLDKVLALELFEQITKGVDYIHSKKLIHRDLKPSNIFLVDTKQVKIGDFGLVTSLKNDGKRTRSKGTLRYMSPEQISSQDYGKEVDLYALGLILAELLHVCDTAFETSKFFTDLRDGIISDIFDKKEKTLLQKLLSKKPEDRPNTSEILRTLTVWKKSPEKNERHTC
For B1, the response in assay [4] stood at 21.

B2: full-length PKR with N-terminal split Venus V1 tag, P19525 S33E; T42E; K261D (protein)
chain: MAGDLSAGFFMEELNTYRQKQGVVLKYQELPNEGPPHDRRFEFQVIIDGREFPEGEGRSKKEAKNAAAKLAVEILNKEKKAVSPLLLTTTNSSEGLSMGNYIGLINRIAQKKRLTVNYEQCASGVHGPEGFHYKCKMGQKEYSIGTGSTKQEAKQLAAKLAYLQILSEETSVKSDYLSSGSFATTCESQSNSLVTSTLASESSSEGDFSADTSEINSNSDSLNSSSLLMNGLRNNQRKAKRSLAPRFDLPDMKETKYTVDDRFGMDFKEIELIGSGGFGQVFKAKHRIDGKTYVIKRVKYNNEKAEREVKALAKLDHVNIVHYNGCWDGFDYDPETSDDSLESSDYDPENSKNSSRSKTKCLFIQMEFCDKGTLEQWIEKRRGEKLDKVLALELFEQITKGVDYIHSKKLIHRDLKPSNIFLVDTKQVKIGDFGLVTSLKNDGKRTRSKGTLRYMSPEQISSQDYGKEVDLYALGLILAELLHVCDTAFETSKFFTDLRDGIISDIFDKKEKTLLQKLLSKKPEDRPNTSEILRTLTVWKKSPEKNERHTC
As for B2, the response in assay [4] was found to be 3.6.

B3: full-length PKR with N-terminal split Venus V1 tag, P19525 R262D (protein)
chain: MAGDLSAGFFMEELNTYRQKQGVVLKYQELPNSGPPHDRRFTFQVIIDGREFPEGEGRSKKEAKNAAAKLAVEILNKEKKAVSPLLLTTTNSSEGLSMGNYIGLINRIAQKKRLTVNYEQCASGVHGPEGFHYKCKMGQKEYSIGTGSTKQEAKQLAAKLAYLQILSEETSVKSDYLSSGSFATTCESQSNSLVTSTLASESSSEGDFSADTSEINSNSDSLNSSSLLMNGLRNNQRKAKRSLAPRFDLPDMKETKYTVDKDFGMDFKEIELIGSGGFGQVFKAKHRIDGKTYVIKRVKYNNEKAEREVKALAKLDHVNIVHYNGCWDGFDYDPETSDDSLESSDYDPENSKNSSRSKTKCLFIQMEFCDKGTLEQWIEKRRGEKLDKVLALELFEQITKGVDYIHSKKLIHRDLKPSNIFLVDTKQVKIGDFGLVTSLKNDGKRTRSKGTLRYMSPEQISSQDYGKEVDLYALGLILAELLHVCDTAFETSKFFTDLRDGIISDIFDKKEKTLLQKLLSKKPEDRPNTSEILRTLTVWKKSPEKNERHTC
As for B3, in assay [4], the response was 13.

B4: full-length PKR with N-terminal split Venus V1 tag, P19525 H37R; S33E; T42E (protein)
chain: MAGDLSAGFFMEELNTYRQKQGVVLKYQELPNEGPPRDRRFEFQVIIDGREFPEGEGRSKKEAKNAAAKLAVEILNKEKKAVSPLLLTTTNSSEGLSMGNYIGLINRIAQKKRLTVNYEQCASGVHGPEGFHYKCKMGQKEYSIGTGSTKQEAKQLAAKLAYLQILSEETSVKSDYLSSGSFATTCESQSNSLVTSTLASESSSEGDFSADTSEINSNSDSLNSSSLLMNGLRNNQRKAKRSLAPRFDLPDMKETKYTVDKRFGMDFKEIELIGSGGFGQVFKAKHRIDGKTYVIKRVKYNNEKAEREVKALAKLDHVNIVHYNGCWDGFDYDPETSDDSLESSDYDPENSKNSSRSKTKCLFIQMEFCDKGTLEQWIEKRRGEKLDKVLALELFEQITKGVDYIHSKKLIHRDLKPSNIFLVDTKQVKIGDFGLVTSLKNDGKRTRSKGTLRYMSPEQISSQDYGKEVDLYALGLILAELLHVCDTAFETSKFFTDLRDGIISDIFDKKEKTLLQKLLSKKPEDRPNTSEILRTLTVWKKSPEKNERHTC
For the molecule B4, the response in assay [4] amounted to 3.1.

B5: full-length PKR with N-terminal split Venus V1 tag, P19525 H37R (protein)
chain: MAGDLSAGFFMEELNTYRQKQGVVLKYQELPNSGPPRDRRFTFQVIIDGREFPEGEGRSKKEAKNAAAKLAVEILNKEKKAVSPLLLTTTNSSEGLSMGNYIGLINRIAQKKRLTVNYEQCASGVHGPEGFHYKCKMGQKEYSIGTGSTKQEAKQLAAKLAYLQILSEETSVKSDYLSSGSFATTCESQSNSLVTSTLASESSSEGDFSADTSEINSNSDSLNSSSLLMNGLRNNQRKAKRSLAPRFDLPDMKETKYTVDKRFGMDFKEIELIGSGGFGQVFKAKHRIDGKTYVIKRVKYNNEKAEREVKALAKLDHVNIVHYNGCWDGFDYDPETSDDSLESSDYDPENSKNSSRSKTKCLFIQMEFCDKGTLEQWIEKRRGEKLDKVLALELFEQITKGVDYIHSKKLIHRDLKPSNIFLVDTKQVKIGDFGLVTSLKNDGKRTRSKGTLRYMSPEQISSQDYGKEVDLYALGLILAELLHVCDTAFETSKFFTDLRDGIISDIFDKKEKTLLQKLLSKKPEDRPNTSEILRTLTVWKKSPEKNERHTC
For B5, the response in assay [4] came to 3.8.

B6: full-length PKR with N-terminal split Venus V1 tag, P19525 K261D (protein)
chain: MAGDLSAGFFMEELNTYRQKQGVVLKYQELPNSGPPHDRRFTFQVIIDGREFPEGEGRSKKEAKNAAAKLAVEILNKEKKAVSPLLLTTTNSSEGLSMGNYIGLINRIAQKKRLTVNYEQCASGVHGPEGFHYKCKMGQKEYSIGTGSTKQEAKQLAAKLAYLQILSEETSVKSDYLSSGSFATTCESQSNSLVTSTLASESSSEGDFSADTSEINSNSDSLNSSSLLMNGLRNNQRKAKRSLAPRFDLPDMKETKYTVDDRFGMDFKEIELIGSGGFGQVFKAKHRIDGKTYVIKRVKYNNEKAEREVKALAKLDHVNIVHYNGCWDGFDYDPETSDDSLESSDYDPENSKNSSRSKTKCLFIQMEFCDKGTLEQWIEKRRGEKLDKVLALELFEQITKGVDYIHSKKLIHRDLKPSNIFLVDTKQVKIGDFGLVTSLKNDGKRTRSKGTLRYMSPEQISSQDYGKEVDLYALGLILAELLHVCDTAFETSKFFTDLRDGIISDIFDKKEKTLLQKLLSKKPEDRPNTSEILRTLTVWKKSPEKNERHTC
B6: the response in assay [4] was found to be 3.4.

B7: full-length PKR with N-terminal split Venus V1 tag, P19525 S33E; T42E; R262D (protein)
chain: MAGDLSAGFFMEELNTYRQKQGVVLKYQELPNEGPPHDRRFEFQVIIDGREFPEGEGRSKKEAKNAAAKLAVEILNKEKKAVSPLLLTTTNSSEGLSMGNYIGLINRIAQKKRLTVNYEQCASGVHGPEGFHYKCKMGQKEYSIGTGSTKQEAKQLAAKLAYLQILSEETSVKSDYLSSGSFATTCESQSNSLVTSTLASESSSEGDFSADTSEINSNSDSLNSSSLLMNGLRNNQRKAKRSLAPRFDLPDMKETKYTVDKDFGMDFKEIELIGSGGFGQVFKAKHRIDGKTYVIKRVKYNNEKAEREVKALAKLDHVNIVHYNGCWDGFDYDPETSDDSLESSDYDPENSKNSSRSKTKCLFIQMEFCDKGTLEQWIEKRRGEKLDKVLALELFEQITKGVDYIHSKKLIHRDLKPSNIFLVDTKQVKIGDFGLVTSLKNDGKRTRSKGTLRYMSPEQISSQDYGKEVDLYALGLILAELLHVCDTAFETSKFFTDLRDGIISDIFDKKEKTLLQKLLSKKPEDRPNTSEILRTLTVWKKSPEKNERHTC
Turning to B7, the response in assay [4] stood at 12.
